From the supplement of paper PMC12764529
± gives the half width of the 95% confidence interval.

Assays:
[1] = folding stability dG unfold from chymotrypsin proteolysis; higher = more stable
Protocol: (§1)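 Folding stability of de novo designed mini-proteins (<80 aa, no Cys; designed by TrROS, TrMRF, ProteinMPNN and the joint model) was measured by cDNA display proteolysis with trypsin and chymotrypsin. Each protease was used at 11 concentrations in a threefold dilution series plus a no-protease condition. K50 was inferred by Bayesian fitting of sequencing counts, and dG unfold was derived against a sequence-predicted unfolded-state K50 (Tsuboyama et al. method). Sequences shown include variable-length N-terminal GS-type padding (SAGGSAGG...) inside a display construct carrying a PA tag. Rows were kept only if the AF2 dimer inter-PAE was >15, to exclude likely homo-oligomers.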

[2] = folding stability dG unfold (combined trypsin and chymotrypsin); higher = more stable
Protocol: as §1

| Sequence | folding stability dG unfold [1] | folding stability dG unfold [2] |
| --- | --- | --- |
| SAMTPDELADELAKKFHQQNQENGYEIPDVDIKYDPEEDRVTVEFEMRNKNTGRPMRPTFQIDDPEDILSAG [r14_409_TrROS] | -1.03 ± 1.38 kJ/mol | < -4.18 kJ/mol |
| SAMIVTEKEDPATNTTLVTTTEIYPDSITVTTTTITKSGEILTESPSTTTIPLGSPLGPENKAKNIALSSAG [r14_930_JUSTAS] | -0.77 ± 0.586 kJ/mol | < -4.18 kJ/mol |
| SAGGSAGGSAGGAIEEARDLAKEGGPWEATIPVYDPNGGPKTIKIRVEVERDPENGKFKSAGGSAGGSAGGS [r10_346_TrROS] | 1.07 ± 0.502 kJ/mol | -0.328 ± 0.795 kJ/mol |
| SAGGSAGGSAGGYDPNDKPVVEVPIELPPNDKKNPDRMKENAEEIANPLQEKGKPDRIVSAGGSAGGSAGGS [r10_723_TrROS] | 3.8 ± 0.46 kJ/mol | 1.99 ± 1 kJ/mol |
| SAGGSAGGSAGGMKIRVTHPTNKTEEIIPVSELKKIPGPYTIEPLGPDPELAEKIKKLLSAGGSAGGSAGGS [r10_419_JUSTAS] | 2.31 ± 0.92 kJ/mol | 0.596 ± 1.05 kJ/mol |
| SAGGSAGGSAGGSGPPLRTEERVEEVTLPNGERLLVETTTLTDPVTGETTVSRSIRLPLSAGGSAGGSAGGS [r4_445_JUSTAS] | 2.22 ± 0.418 kJ/mol | -1.59 ± 0.795 kJ/mol |
| SAGGGMSLTTTTLTFSIDEVDPEELYEELSKKGVTVYSGGKPSNPEEGMEALLKAHPNSSYTVLTRLSAGGS [r8_38_JUSTAS] | -2.02 ± 2.26 kJ/mol | < -4.18 kJ/mol |
| SAGGGVTLTVDVRSKSGGSPEKFTLTLPVAVDPAGSADLDAARAAVAAALPPEAEVLELSLLPPDVPASAGG [r13_504_JUSTAS] | 1.45 ± 0.711 kJ/mol | < -4.18 kJ/mol |
| SAGGSAGGSAGGVRPNPNGQYEVTVTIRNPGGGNKREKTINATPDEIEELQDQGFEIEPSAGGSAGGSAGGS [r10_749_TrROS] | -4.54 ± 1.46 kJ/mol | < -4.18 kJ/mol |
| SAGGSANAEEIADWLQDRGFKEVEIEKDPENGNVTVEIRNPGGYEWELTINPKNPKITEIEPRPKKSAGGSA [r15_648_TrROS] | 0.334 ± 0.406 kJ/mol | -2.19 ± 1.76 kJ/mol |
| SAGGSAGGSAGGGMILNITLIRPDGKPIVIEGPLDKPLYNPKKAGIENIPPEKLVKVEPRSAGGSAGGSAGG [r7_745_TrMRF] | -3.73 ± 3.35 kJ/mol | < -4.18 kJ/mol |
| SAGGMKTSPIGTFPLPDPSNGALADTVTIENPKEIIKKSNKEIVKVTVTTTAPDGTPTTTDEIIIIKNSAGG [r13_735_JUSTAS] | 2.29 ± 0.276 kJ/mol | 0.618 ± 1.26 kJ/mol |
| SAGDYDVEKDPDGYRVEHKNGDKRYVPPVPPPIPVVMIPIKDPEDLDEFANELGLNITDISDDWITMPASAG [r5_328_TrROS] | 1.77 ± 0.544 kJ/mol | -0.661 ± 1.13 kJ/mol |
| SAPEIVVERFEDGSRRLGFTIPGYEVLEEVDVPANETEKTAVFTLPDRVLVFTFREEGIEPRPVPLDELSAG [r14_403_TrMRF] | -0.84 ± 1.26 kJ/mol | -2.5 ± 1.05 kJ/mol |
| SAGGSAGGSAPLVLVAPGDAPVTVYPDPETGTYVAVFPDGSVLVAPVVGDVVPVVLLPPGLASAGGSAGGSA [r18_405_TrMRF] | 2.83 ± 0.795 kJ/mol | -1.3 ± 0.962 kJ/mol |
| SAGGSPPYVNISMRRTPNGNMPLKVEIYDKDNEPVAEQEIEIPDMEPGEQWNFTIPIEPNMKLRIESAGGSA [r2_288_TrROS] | 1.91 ± 0.544 kJ/mol | -0.551 ± 0.502 kJ/mol |
| SAGGSAGGSAGGGERRRVLHINPEDGYIQRMEFDPDDGEPTGSETVPFKSPEDALDKLIDSAGGSAGGSAGG [r7_105_TrROS] | 1.43 ± 0.586 kJ/mol | -0.638 ± 0.837 kJ/mol |
| SAGGSAGGSAGGPMRLVRIPLDDGKIKVVPIPPGEAIPFENDNGEIYFMVTDDKIEIMPSAGGSAGGSAGGS [r10_817_TrROS] | 0.756 ± 1.84 kJ/mol | 0.182 ± 0.628 kJ/mol |
| SAGGMNSMRLTVEFPSPEQREEKLRQIVHKHGFTIKPKEVEPNPNGRMTHTIEINMPPKVRDAFKDLSAGGS [r8_357_TrROS] | -0.637 ± 0.795 kJ/mol | -2.76 ± 0.586 kJ/mol |
| SAGGSAGGSAGGSMVYRVVLEPESGERVEFEVTYDEAEELLEKLPPNARLRIEPVPEDASAGGSAGGSAGGS [r4_63_TrMRF] | 1.11 ± 0.544 kJ/mol | -0.31 ± 0.711 kJ/mol |
| SAGTITKLKTEYDPKGYRFIELLDPLPNDPSVPAEALAQEIKEKYGAEKAEIKPVPGTGAIRILLIKPESAG [r14_228_JUSTAS] | -1.66 ± 2.01 kJ/mol | -2.8 ± 1.76 kJ/mol |
| SAMKKLRELLEKEFPDRPIKSVKNLGEKLAPDGTPYYVVELTFPDGSTITVTITSEEKPEILEAIEEEESAG [r14_143_JUSTAS] | 16.3 ± 0.92 kJ/mol | 16.9 ± 1.13 kJ/mol |
| SAGGSAGGMKTKTYTIPLSQVSSIDPSGTVSEEEVKALGLPPNFKATVVPLPGSEEAVEVTVPESAGGSAGG [r6_553_JUSTAS] | 0.481 ± 0.46 kJ/mol | -1.6 ± 0.753 kJ/mol |
| SAGNPSLKLKTETQVEVTEVSESVLPDGGYTLTKSKFTVTTTIYDTTKPKVLSTETTEETETVATPLVSAGG [r19_136_JUSTAS] | 1.85 ± 0.46 kJ/mol | 0.293 ± 0.293 kJ/mol |

| Sequence | folding stability dG unfold [1] | folding stability dG unfold [2] |
| --- | --- | --- |
| SAGGSAGGSGNPTPPAEPTVTLSTSDWNEVKERVEKAGLEYETFPGEGKVTLPASDFEKIKEESAGGSAGGS [r12_325_JUSTAS] | 1.49 ± 0.205 kJ/mol | -0.0131 ± 0.586 kJ/mol |
| SAGGSAGGSAEVTFKKVSFSPPENTVYVSEVKAKLYVGEDDSLKFKVEPVKVEKVSPADLLAKSAGGSAGGS [r12_374_TrMRF] | 0.199 ± 0.669 kJ/mol | -1.84 ± 0.669 kJ/mol |
| SAPAVETRSVTTEPVASPTPRVPYTLVVESVTTTAVDAAGTPVATSVSLKEVRYGDGTISRTFSATPTASAG [r14_848_JUSTAS] | -3.99 ± 1.21 kJ/mol | < -4.18 kJ/mol |
| SAGKTIYIQGPLDELRKLPEIKEVEKTGNHWTLELPNVPIHIEIEPPPPVPVVPPEMPKEQMKEYMKKMSAG [r5_2_TrROS] | 2.7 ± 1.34 kJ/mol | 1.32 ± 1.55 kJ/mol |
| SAGGSAGGSAGGGPPLPLRVEREEKVEKTPDDRVLIKRKVTVELPDRPLSEEESIEILLESAGGSAGGSAGG [r7_293_JUSTAS] | 0.609 ± 0.837 kJ/mol | -1.73 ± 1.05 kJ/mol |
| SAGGSAGGSAGGSSVVIVADSAEEAKAALKELGIKDAKVVPLKPVKVFTDEQLKELKKKSAGGSAGGSAGGS [r4_101_TrROS_Hall] | 3.95 ± 0.163 kJ/mol | 1.15 ± 1.17 kJ/mol |
| SAGGSAMVVVKITNPNGEKIEIEIEAETEEEAKKAAEELAKKLPKNVKVEVVKVEKVEVKDGKILKSAGGSA [r15_469_TrROS_Hall] | -3.85 ± 3.1 kJ/mol | < -4.18 kJ/mol |
| SAGGMKITVTPSTDPNTPLTRETVTVPPTADPEAVAEKLRRAYPDGSTTTVTPRPDGTIVVTTTLPASAGGS [r8_255_JUSTAS] | 0.758 ± 0.347 kJ/mol | -1.22 ± 0.289 kJ/mol |
| SAGGSAGGSAGGVAEWIQEQGFKVKDIPVPRPPNGNPWVKVEVEHDGGKRTYEIPLDEISAGGSAGGSAGGS [r10_35_TrROS] | 2.04 ± 0.502 kJ/mol | 0.12 ± 0.586 kJ/mol |
| SAGGSAGGMTIPAEKIKGKPIKVLVDRGNAIFPLKEAKVKTKPDGRVELYVPKELGEDTKIIAGSAGGSAGG [r6_628_TrMRF] | -2.4 ± 0.753 kJ/mol | < -4.18 kJ/mol |
| SAGGSAMPSPITVTTFPGGTARLVEFPDGSTAVVEIVEEGPERVLVTTTTPPDGVPTTSVVPAAELSAGGSA [r15_941_JUSTAS] | -0.275 ± 0.301 kJ/mol | -2.25 ± 0.879 kJ/mol |
| SAGMDEYIRELIEKLPSENPSTSPITYRDKNIEAVTYYPSTNTTTFHFPGGEVISASPSTSIEEILKELSAG [r14_59_JUSTAS] | 0.828 ± 0.92 kJ/mol | -0.806 ± 0.795 kJ/mol |
| SAGGSAGGMVKTYKTDKETAIELAEKIKKQGVKVEITPHPDSTLLTITINEPKIDPKNSPNIIISAGGSAGG [r6_392_JUSTAS] | 0.353 ± 1.26 kJ/mol | < -4.18 kJ/mol |
| SAGGSAGGSASVGLLSVSTTPSGPGTTVTATTALPDGTVRTETRTEAGDGTATATTVTPLAASAGGSAGGSA [r18_79_JUSTAS] | 1.13 ± 0.289 kJ/mol | -1.23 ± 0.628 kJ/mol |
| VSPLDLEGPGGLPPSELRRVSVLREETDPSVGEKRLSPVGTLFVPKDTSPEEVEAIIAARPDITRVEVRLLS [r1_132_JUSTAS] | 2.1 ± 0.28 kJ/mol | 0.395 ± 0.343 kJ/mol |
| SAGGSAGGSAGGPVLIRAVFTPPNGPVLELVVPSPEEVVELAKPFDVEVHIEPISPDDPFSAGGSAGGSAGG [r7_456_TrMRF] | -4.68 ± 1.88 kJ/mol | < -4.18 kJ/mol |
| SAPPATLTVDSVEFHPETGTLTIPFSHPAGPTASVLFRNEDGEVLEIPGTVPTATIRAEPNMRLERVFLGSA [r9_113_TrMRF] | 2.09 ± 0.418 kJ/mol | -0.161 ± 0.339 kJ/mol |
| SAGGSAVGYYVETEIEKVEEKTYTFKPDGSPLKYFKNVKKNIKVKKVYVVKPTPDNSVIVDPNIPLSAGGSA [r15_162_JUSTAS] | -2.59 ± 1.92 kJ/mol | < -4.18 kJ/mol |
| SAGGSAGMKNVVKPVAPGTSMTLKVTKPDGTPRTLTFPPNYTATVKTLPEGGKDEIISLEPVPPELSAGGSA [r15_82_JUSTAS] | -3.43 ± 2.22 kJ/mol | < -4.18 kJ/mol |
| SMEFTIEVYDPVTPKVETFPVKAPKEKVIEKIREFQEKGGKVVLSGLPEEKVKEIVEEAGVDVEIVPVEKSA [r9_1207_TrMRF] | 2.26 ± 0.377 kJ/mol | 1.19 ± 0.795 kJ/mol |
| SAGGSAGGSAGSAPAGALVTEEVSLEETETFFDPTTKKPLRTVRVTVPVKRERVVSPALPSAGGSAGGSAGG [r11_970_JUSTAS] | -3.33 ± 2.89 kJ/mol | < -4.18 kJ/mol |
| SAGGSVVTGVDEEELRAVAEALRAAGHTLADVRIERYPEDGTYRMTVTLVDPATAAPLADVLMVAKASAGGS [r16_750_JUSTAS] | 3.71 ± 0.544 kJ/mol | 1.3 ± 0.628 kJ/mol |
| SAGGSAGGSAGGAPVTVIPVKKDNPEVREKTAKELKEKAKEIDPSNIKITIEKGVVTLESAGGSAGGSAGGS [r10_182_JUSTAS] | 1.1 ± 0.205 kJ/mol | -0.269 ± 0.544 kJ/mol |
